# In the nanobody polyreactivity screen of Harvey et al. (2022):
# Test: yeast display, Sf9 membrane polyspecificity reagent, FACS + sequencing; frameworks hold sequencing errors
# Procedure, shortened: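 A nanobody's polyreactivity label depends on the gate it was sorted from. Yeast display cells were stained with 10% biotinylated, detergent-solubilized Sf9 membrane reagent for 1 hour at 4 °C, enriched on streptavidin microbeads and sorted by FACS. The low and high (top ~1%) gates were set on anti-HA fluorescence for expression and streptavidin fluorescence for reagent binding.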
row,Sequence,polyreactivity (PSR sort gate)
1,QVQLVESGGGLVQAGGSLRLSCAASGRIFYYYAMGWYRQAPGKERELVAAISWSGGSTYYADSVKGRFTISRDNAKNTVYLQMNSLKPEDTAVYYCAAESRKYREYYYWGQGTQVTVSS,high polyreactivity
2,QVQLVESGGGLVQAGGSLRLSCAASGRIFYYYAMGWYRQAPGKERELVAVISRGGRTKYADSVKGRFTISRDNAKNTVYLQMNILKPEDTAVYYCAAYPSYYGDSGLRYDYWGQGTQVTVSS,high polyreactivity
3,QVQLVESGGGLVQAGGSLRLSCAASGRIFYYYDMGWYRQAPGKARELVAAITSAGITYYADSVKGRFTISRDNAKNTVYLQMNSLKPEDTAVYYCAVEFYDKRWPYRGGYWGQGTQVTVSS,low polyreactivity
4,QVQLVESGGGLVQAGGSLRLSCAASGRIFYYYTMGWYRPAPGKERELVARITGLTGRTYYADCVKGRFTISRDNGKNTVYLQMNSLKPEDTAVYYCNARYFRHYDYWGQGTQGTVSS,high polyreactivity
5,QVQLVESGGGLVQAGGSLRLSCAASGRIFYYYTMGWYRQAPGKEREVVAAITKGDDDTSYADSVKGRFTISRDNAKNTVYVQMNSLKPEDTAVYYCAVEIVLVPFVVGYDYWGQGTQVTVSS,low polyreactivity
6,QVQLVESGGGLVQAGGSLRLSCAASGRIGNTMGWYRQAPGKERELVATISSSGGSTYYADSVKGRFTISRDNAKNTVYLQMNSLKPEDTAVYYCAVEYYGYSTSGRYLSPYNYWGQGTQVTVSS,low polyreactivity
7,QVQLVESGGGLVQAGGSLRLSCAASGRIGPNVMGWYRQPPGKERELVARITWRGGSTYYADSVKGRFTISRDNAKNTVYLQMNSLKPEDTAVYYCNARGHGGWGTSMYYWGQGTQVTVSS,high polyreactivity
8,QVQLVESGGGLVQAGGSLRLSCAASGRIIAIYAMGWYRPAPGKERELVAAISWNSGRTNYADSVKGRFTISRDNAKNTVYLQMNSLKPEDTAVYYCAADGDRYLVSTSYPEYDYWGQGTQVTVTS,low polyreactivity
9,QVQLVESGGGLVQAGGSLRLSCAASGRIIDRNDMGWYRQAPGKERELVAAISSSGSTNYADSVKGRFTISRDNAKNTVYLQMNSLKPEHTAGYYCADRWRSVLASGTRPVSFDYWGQGTQVTVSS,low polyreactivity
10,QVQLVESGGGLVQAGGSLRLSCAASGRIIEHNAMGWYRQAPGKERELVAAINYSGGSTYYADSVKGRFTISRDNAKNTVYLQMNSLKPEDTAVYYCATRTGHWGQGTQVTVSS,low polyreactivity
11,QVQLVESGGGLVQAGGSLRLSCAASGRIIFRNAMGWYRQAPGKERELVAAISTSGGSTYYADSVKGRFTISRDNAKNTVYLQMNSLKPEDTAVYYWSKQFNSSPRRYYWGQGTQVTVSS,high polyreactivity
12,QVQLVESGGGLVQAGGSLRLSCAASGRIIGFNAMGWYRQAPGKEMELVASIRTTGGSTRYADSVKGRFTISRDNAKNTVYLQMNSLKREDTAVYYCAARWGKTLWQYNYWGQGTQVTVSS,high polyreactivity
13,QVQLVESGGGLVQAGGSLRLSCAASGRIIGKNVMGWSRQAPGKDRELVAAISNSGGSTYYADSVKGRFTISRDNAKNTVYLQMNSLKPEDTAVYYCAVDTSYYDYWGQGTQVTVSS,high polyreactivity
14,QVQLVESGGGLVQAGGSLRLSCAASGRIIGLYTMGWYRQAPGKERELVAAINIRGTRTYYADSVKGRFTISRDNAKNTVYLQMNSLKPEDTSVYYCARSPVVVGSFLSYDYWGQGTQVTVSS,high polyreactivity
15,QVQLVESGGGLVQAGGSLRLSCAASGRIIGLYTMGWYRQAPGKERELVAAINIRGTRTYYADSVKGRFTISRDNAKNTVYLQMTSLKPEDTAVYYCNAYPKSWELDYWGLGTQVTVSS,high polyreactivity
16,QVQLVESGGGLVQAGGSLRLSCAASGRIIGYNAMGWYRQAPGKERELVATITYGGGRTYYADSVKGRFTISRDNAKNTVYLQMNSLKPEDTAVYYCAAKHRFPIPGFGYWGQGTQVTVSS,low polyreactivity
17,QVQLVESGGGLVQAGGSLRLSCAASGRIIKYYTMGWYRQAPGKERELVASITGTGGSTYYADSVKGRFTISRDNAKNTVYLQMNSLKPEDTAVYYCAARLSVLGGYRGRNAWRFDHWGQGTQVTVSS,high polyreactivity
18,QVQLVESGGGLVQAGGSLRLSCAASGRIILGYAMGWYRQAPGKERELVARITWSGGSTYYADSVKGRFTISRDNAKNTVSLQMNSLKPEDNAVYYCAKRTYYSYPDGYWGQGTQVTVSS,high polyreactivity
19,QVQLVESGGGLVQAGGSLRLSCAASGRIIRSYAMGRYRQAPRKERELVDAITTGGRTYYADSVKGRFTISRDNAKNTVYLQMNSLKPEDTAVYYCNSALVYRGTDTNDYWGQGTQVTVSS,high polyreactivity
20,QVQLVESGGGLVQAGGSLRLSCAASGRIIRWYAMAWYRQAPGKERELVAAITWRGGSTDYADSVKGRFTISRDNAKNTVYLQMNSLKPEDTAVYYCNAAGFKTSWYYYGDWYDYWGQGTQVTVSS,high polyreactivity
21,QVQLVESGGGLVQAGGSLRLSCAASGRIISSYAMGWYRQAPGKERELVAAITSSGGSTYYADSVKGRFTISRDNAKNTVYLQMNSLKPEDTAVYYCAARVFARYYTAYGVETRREEDYWGQGTQVTVSS,low polyreactivity

row,Sequence,polyreactivity (PSR sort gate)
1,QVQLVESGGGLVQAGGSLRLSCAASGRIITAYYAMGWYRQAPGKERELVASISSSGTSTYADSVKGRFTISRDNAKNTVYLQMNSLKPEDTAVYYCATRKLRTRRYDYGYWGQGTQVTVSS,low polyreactivity
2,QVQLVESGGGLVQAGGSLRLSCAASGRIITRYAMGWYRQAPGKERELVAAISSGGSTYYADSVKGRFTISRDNAKNTVYLQMNSLKPEDTAVYYCARGWSGAYAGGYWGQGTQVTVSS,high polyreactivity
3,QVQLVESGGGLVQAGGSLRLSCAASGRIITYNAMGWYRQAPGKERELVAAISTTGGRTYYADSVKGRFTISRDNAKNTVYLQMNSLKPEDTAVYYCNAVLKRPLAYHVTYDYWGQGTQVTVSA,high polyreactivity
4,QVQLVESGGGLVQAGGSLRLSCAASGRIIVLYAMGWYIQAPGKERELVASIRSGGSTNYADSVKGRFTISRDNAKNTVYLQMNSLKPEDTAVYYCAARIRSVVPFDMDYWGQGTQVTVSS,low polyreactivity
5,QVQLVESGGGLVQAGGSLRLSCAASGRIIVRNAMGWYRQAPGKERELVAAISGSGSRTYYADSVKGRFTISRDNAKNTVYLQMNSLNPEDTAVYYCAASGYWPFRSGFGYWGQGTQVTVSS,high polyreactivity
6,QVQLVESGGGLVQAGGSLRLSCAASGRIIYGNALGWYRQAPGKERELVAAITSGGSTNYADSVKGRFPISRDNAKNTVYLQMNSLIPEDTAVYYCNAVVYSAYRYEYWGQGTQVTVSS,low polyreactivity
7,QVQLVESGGGLVQAGGSLRLSCAASGRIIYIYAMGWYIQAPGKERELVAAITASSGSTNYADSVKGRFTISRDNAKNTVYLQMNSLKPEDTAVYYCAAAPSRTLLRQSKYYYWGQGTQVTVSS,low polyreactivity
8,QVQLVESGGGLVQAGGSLRLSCAASGRIIYKNAMGWYRQAPGKERELVAAITSSGGSTYYADSVKGRFTISRDNAKNTVYLQMYSLKPEDTAVYYCATDWPHWRKVYWFDYWGQGTQVTVSS,low polyreactivity
9,QVQLVESGGGLVQAGGSLRLSCAASGRIIYNYAMGWYRQAPGKERELVAAISRGGSTNYADSVKGRFTISRDNAKNTVYLQMNSLKPEDTAVYYCAAWTYVWTRGGSPVTVQRYNYWGQGTQVTVSS,high polyreactivity
10,QVQLVESGGGLVQAGGSLRLSCAASGRIIYSYAMGWYRQAPGKERELVATITASGGRTYYADSVKGRFTISRDNAKNTVYLQMHSLKQEDSAVYYCNARYYGSFRRRYDYWGQGTQVTVSS,high polyreactivity
11,QVQLVESGGGLVQAGGSLRLSCAASGRIIYTYAMGWYRQAPGKERELVAAISWSGGSTYYADSVKGRFTISRDNAKNTVYLQMNSLKPEDTAVYFCNAAYYGYENLSKRGYWGQGTQVTVSS,high polyreactivity
12,QVQLVESGGGLVQAGGSLRLSCAASGRILAAYTMGWYRQAPGKERELVAAITRGGSRTNYADSVKGRFTISRDNAKNTVYLQMNSLKPEDTAVYYCAATWSAYRRWGYDYWGQGTQVTVSS,high polyreactivity
13,QVQLVESGGGLVQAGGSLRLSCAASGRILASYAMGWYRQAPGKECELVAAIRYRGSTSYADSVKGRFTISRDNAKNTVYLQMNSLKPEDTAVYYCAAKWHVRGRGARYRYDYDYWGQGTQVTVSS,low polyreactivity
14,QVQLVESGGGLVQAGGSLRLSCAASGRILDWYAMGWYRQAPGTERELVASIYSTGGSSYYADSVKGRFTISRDHAKNTVYLQMNRLKPDDTAVYYCAAVIRSQDGRGYDYWGHGTQVTVSS,high polyreactivity
15,QVQLVESGGGLVQAGGSLRLSCAASGRILGFYAMGWYRQAPGKERELVARINWSGTRTYYADSVKGRFTISRDNAKNTVYLQMNSLKPEDTAVYYCAARRYYPYDYWGQGTQVTVSS,high polyreactivity
16,QVQLVESGGGLVQAGGSLRLSCAASGRILGKYAMGWYRQAPGKERELVAAIRLRGGSPYYADSVKGRFTISRDNAKNTVYLQMNSLKPDDTAVYYCAARYWDRSQAYNYWGQGTQVTVSS,high polyreactivity
17,QVQLVESGGGLVQAGGSLRLSCAASGRILGRYAMGWYRQAPGKERELVATITSGDDTNYADSVKGRFTISRDNAKNTVYLQMNSLKPEDTAVGYWGQGTQVTVSS,low polyreactivity
18,QVQLVESGGGLVQAGGSLRLSCAASGRILGSYAMGWYRQAPGKERELVAAISRGGGRTYYADSVKGRFTISRDNAKNTVYLQMNSLNPEDTAVYYCNAPVTGSSSYFSQHFDYWGQGTQVTVSS,high polyreactivity
19,QVQLVESGGGLVQAGGSLRLSCAASGRILGWNAMGWYSPAPGKVRELVAGISSSGGSTYYADSVKGRFTISRHNAKNTVNIQMNSLKPEDTAVYYCAAVVWLSSANRRYYYWGQGTQVTVSS,high polyreactivity
20,QVQLVESGGGLVQAGGSLRLSCAASGRILHRYVMGWNRQAPGKERELVAAISSGGSTTYADSVKGRFTISRDNAKNTVYLQMNSLKPEATAVYYCAKYSFWRTSRMDFWGQGTQVTVSS,low polyreactivity
